# Data: the supplement of paper PMC9112550, “Optimization of the antimicrobial peptide Bac7 by deep mutational scanning” (BMC Biology, 2022)
# Tested on: Escherichia coli TOP10
# Test: shrunken log2 fold change of peptide-encoding DNA abundance (4.5 h post-induction vs induction); higher = less antimicrobial activity (less host growth inhibition)
# Conditions: time post-induction: 4.5 h; library: site-saturation at positions 5, 18, 19, 20
# 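Further: peptides expressed intracellularly from a pBAD plasmid library in pooled LB shake-flask culture, induced with 0.3% L-arabinose, DNA abundance read by NGS, three biological replicates, DESeq2 with apeglm shrinkage.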
row,Sequence,shrunken log2 fold change
1,RRIRRRPPRLPRPRPRPHTAPRP,0.313
2,RRIRCRPPRLPRPRPRPIMRPRP,0.415
3,RRIRERPPRLPRPRPRPAILPRP,-0.629
4,RRIRYRPPRLPRPRPRPGGRPRP,-0.019
5,RRIRLRPPRLPRPRPRPTYMPRP,-0.469
6,RRIRKRPPRLPRPRPRPDKCPRP,-0.142
7,RRIRWRPPRLPRPRPRPSEQPRP,-0.247
8,RRIRTRPPRLPRPRPRPQTEPRP,-0.0173
9,RRIRCRPPRLPRPRPRPGDVPRP,-0.319
10,RRIRIRPPRLPRPRPRPATYPRP,0.00351
11,RRIRNRPPRLPRPRPRPVPRPRP,0.0283
12,RRIRWRPPRLPRPRPRPRRAPRP,0.737
13,RRIRLRPPRLPRPRPRPHVHPRP,-0.0727
14,RRIRYRPPRLPRPRPRPINEPRP,-0.181
15,RRIRDRPPRLPRPRPRPHYSPRP,-0.16
16,RRIRPRPPRLPRPRPRPINKPRP,-0.641
17,RRIRMRPPRLPRPRPRPYVAPRP,-0.445
18,RRIRQRPPRLPRPRPRPYGAPRP,-0.0876
19,RRIRIRPPRLPRPRPRPPHEPRP,0.225
20,RRIRIRPPRLPRPRPRPSINPRP,-1.03
21,RRIRQRPPRLPRPRPRPSWCPRP,-0.141
22,RRIRFRPPRLPRPRPRPRVEPRP,0.61

row,Sequence,shrunken log2 fold change
1,RRIRHRPPRLPRPRPRPTFTPRP,-0.265
2,RRIRQRPPRLPRPRPRPRSWPRP,0.681
3,RRIRLRPPRLPRPRPRPSQSPRP,-0.511
4,RRIRDRPPRLPRPRPRPREVPRP,0.454
5,RRIRCRPPRLPRPRPRPICAPRP,0.107
6,RRIRKRPPRLPRPRPRPVNCPRP,-0.112
7,RRIRQRPPRLPRPRPRPPAWPRP,0.0654
8,RRIRQRPPRLPRPRPRPFLAPRP,0.286
9,RRIRLRPPRLPRPRPRPNVKPRP,-0.107
10,RRIRWRPPRLPRPRPRPECMPRP,0.623
11,RRIRRRPPRLPRPRPRPNPAPRP,0.643
12,RRIRVRPPRLPRPRPRPVGNPRP,-0.129
13,RRIRNRPPRLPRPRPRPASVPRP,-0.0792
14,RRIRERPPRLPRPRPRPYWKPRP,-0.0866
15,RRIRRRPPRLPRPRPRPFRLPRP,-0.143
16,RRIRWRPPRLPRPRPRPLAKPRP,0.499
17,RRIRSRPPRLPRPRPRPCKKPRP,-0.121
18,RRIRLRPPRLPRPRPRPVSLPRP,-0.0897
19,RRIRMRPPRLPRPRPRPGAVPRP,0.873
20,RRIRHRPPRLPRPRPRPCPFPRP,-0.654
21,RRIRTRPPRLPRPRPRPFYMPRP,-0.369
22,RRIRPRPPRLPRPRPRPRLYPRP,0.127

row,Sequence,shrunken log2 fold change
1,RRIRKRPPRLPRPRPRPYMVPRP,-0.211
2,RRIRFRPPRLPRPRPRPDNYPRP,-0.12
3,RRIRVRPPRLPRPRPRPYKPPRP,-0.757
4,RRIRFRPPRLPRPRPRPQEDPRP,0.0325
5,RRIRRRPPRLPRPRPRPSDMPRP,-0.463
6,RRIRMRPPRLPRPRPRPLQKPRP,1.02
7,RRIRTRPPRLPRPRPRPGAQPRP,0.283
8,RRIRRRPPRLPRPRPRPWCLPRP,-0.214
9,RRIRYRPPRLPRPRPRPHAQPRP,-0.0405
10,RRIRPRPPRLPRPRPRPCRKPRP,-0.134
11,RRIRDRPPRLPRPRPRPFLEPRP,-0.192
12,RRIRMRPPRLPRPRPRPLEWPRP,0.31
13,RRIRFRPPRLPRPRPRPHVWPRP,0.491
14,RRIRIRPPRLPRPRPRPWSTPRP,-0.358
15,RRIRSRPPRLPRPRPRPPCVPRP,0.00342
16,RRIRLRPPRLPRPRPRPHGWPRP,0.0568
17,RRIRDRPPRLPRPRPRPGTPPRP,0.223
18,RRIRPRPPRLPRPRPRPTWCPRP,0.08
19,RRIRQRPPRLPRPRPRPADFPRP,-0.193
20,RRIRGRPPRLPRPRPRPDFSPRP,0.313
21,RRIRNRPPRLPRPRPRPMQNPRP,-0.11
22,RRIRIRPPRLPRPRPRPKWVPRP,-0.098

row,Sequence,shrunken log2 fold change
1,RRIRFRPPRLPRPRPRPRMHPRP,-0.0776
2,RRIRDRPPRLPRPRPRPRSVPRP,0.165
3,RRIRIRPPRLPRPRPRPMAWPRP,0.0272
4,RRIRMRPPRLPRPRPRPEWIPRP,-0.0024
5,RRIRQRPPRLPRPRPRPIMEPRP,-0.0496
6,RRIRLRPPRLPRPRPRPMTFPRP,-0.263
7,RRIRGRPPRLPRPRPRPRSWPRP,1.19
8,RRIRWRPPRLPRPRPRPNYLPRP,-1
9,RRIRGRPPRLPRPRPRPPTGPRP,0.741
10,RRIRDRPPRLPRPRPRPYKYPRP,-0.661
11,RRIRPRPPRLPRPRPRPIMEPRP,-0.159
12,RRIRQRPPRLPRPRPRPSKEPRP,-0.371
13,RRIRFRPPRLPRPRPRPMGTPRP,-0.0834
14,RRIRIRPPRLPRPRPRPSSMPRP,-0.432
15,RRIRFRPPRLPRPRPRPPALPRP,0.509
16,RRIRVRPPRLPRPRPRPWVIPRP,-0.43
17,RRIRQRPPRLPRPRPRPMKKPRP,0.0152
18,RRIRIRPPRLPRPRPRPDGQPRP,-0.0297
19,RRIRHRPPRLPRPRPRPCSPPRP,-0.232
20,RRIRIRPPRLPRPRPRPCNMPRP,-0.0732
21,RRIRSRPPRLPRPRPRPFCDPRP,-0.353
22,RRIRWRPPRLPRPRPRPIDMPRP,0.0712

row,Sequence,shrunken log2 fold change
1,RRIRRRPPRLPRPRPRPDVVPRP,-0.0225
2,RRIRTRPPRLPRPRPRPSDFPRP,-0.704
3,RRIRVRPPRLPRPRPRPIMDPRP,-0.151
4,RRIRQRPPRLPRPRPRPGEMPRP,0.0469
5,RRIRWRPPRLPRPRPRPCMYPRP,-0.325
6,RRIRDRPPRLPRPRPRPFRVPRP,-0.101
7,RRIRLRPPRLPRPRPRPKTAPRP,0.037
8,RRIRARPPRLPRPRPRPDMQPRP,0.984
9,RRIRFRPPRLPRPRPRPWVPPRP,0.0548
10,RRIRDRPPRLPRPRPRPIRAPRP,0.0872
11,RRIRCRPPRLPRPRPRPGIIPRP,-0.00738
12,RRIRHRPPRLPRPRPRPLAGPRP,0.312
13,RRIRPRPPRLPRPRPRPYLKPRP,-0.259
14,RRIRKRPPRLPRPRPRPAVQPRP,0.195
15,RRIRMRPPRLPRPRPRPYLTPRP,-0.268
16,RRIRPRPPRLPRPRPRPDPHPRP,0.0782
17,RRIRMRPPRLPRPRPRPIKSPRP,-0.0237
18,RRIRSRPPRLPRPRPRPVIEPRP,-0.186
19,RRIRNRPPRLPRPRPRPCMAPRP,-0.346
20,RRIRMRPPRLPRPRPRPMCQPRP,0.00866
21,RRIRQRPPRLPRPRPRPTCSPRP,-0.353
